{
  "source": "paper PMC3663881",
  "about": "(Journal of biomolecular screening, 2013)",
  "binders": {"B1": {"name": "rhaBAD RhaS site probe (oligos 3058/3288) (dsDNA)", "DNA 1": "ACGTTCATCTTTCCCTGGTTGCCAATGGCCCATTTTCCTGTCAGTAACGAGAAGGTCGCGAA", "DNA 2": "TTCGCGACCTTCTCGTTACTGACAGGAAAATGGGCCATTGGCAACCAGGGAAAGATGAACGT"}},
  "target": "T1, RhaS-GB1201b (RhaS L201R-GB1basic) (UniProt P09377 1-278, L201R)",
  "T1 sequence": "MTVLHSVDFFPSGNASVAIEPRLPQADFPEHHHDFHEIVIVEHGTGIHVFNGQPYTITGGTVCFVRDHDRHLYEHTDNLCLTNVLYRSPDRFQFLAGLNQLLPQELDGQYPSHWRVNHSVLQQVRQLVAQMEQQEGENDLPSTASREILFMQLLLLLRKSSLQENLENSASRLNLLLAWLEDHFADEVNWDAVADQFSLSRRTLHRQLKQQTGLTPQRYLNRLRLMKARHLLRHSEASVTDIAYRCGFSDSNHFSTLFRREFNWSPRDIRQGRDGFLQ",
  "test": "EMSA",
  "data": [
    {"binder": "B1", "values": [
      {"measurement": "binding result", "value": "binds"}
    ]}
  ]
}
